Experimental data: patent publication US6800467B1, “Polypeptides having aminopeptidase activity and nucleic acids encoding same” (Novozymes Biotech, Inc., priority 1997, dated 2004)

Tests used:
Assay type in all cases: biochemical
[1] = test system: wheat gluten meal tablets; experiment: Degree of hydrolysis (DH) assay, gluten; settings: 50° C., 18 hours
Protocol: (§1) The purified aminopeptidase II described in Example 11 was tested in degree of hydrolysis assays using soy, wheat gluten, and casein as substrates according to the following procedure.
(§2) The degree of hydrolysis (DH) assays were performed at 50° C. for 18 hours as a mini-hydrolysis on a 10 ml scale using soy bean meal tablets, wheat gluten meal tablets, and sodium-caseinate at a 2% concentration adjusted to pH 7, if necessary, with no pH adjustment during hydrolysis. The hydrolysates were inactivated at 85° C. for 3 minutes in a waterbath. The enzymes used were FLAVOURZYME™ and aminopeptidase II. The enzymes were dosed as follows. […] Upon hydrolysis, p-nitroanilide is liberated turning the solution yellow which is monitored 405 nm.
(§3) The degree of hydrolysis (DH), as defined as described by Adler-Nissen (1986, Enzymic Hydrolysis of Food Proteins, Elsevier Applied Science Publishers), was determined by reaction of the supernatant with OPA (ortho-phtaldialdehyde, Sigma Chemical Co., St. Louis, Mo.) according to the following procedure The hydrolysate was diluted 100-fold into distilled water. […] The solution was then shaken well and after 2 minutes exactly, the absorbance at 340 nm was measured and compared to the absorbance of a 0.95 mM L-serine (distilled water) solution after subtraction of the blank value (water reacted with OPA reagent). […]

sodium-caseinate = experiment: Degree of hydrolysis (DH) assay, casein; settings: vs 3 LAPUs FLAVOURZYME alone
Protocol: as §1, §2, §3

soy bean meal tablets = experiment: Degree of hydrolysis (DH) assay, soy; settings: vs 3 LAPUs FLAVOURZYME alone, 50° C., 18 hours
Protocol: as §1, §2, §3

gelatin = experiment: Degree of hydrolysis (DH) assay, gelatin
[2] = Temperature stability of the aminopeptidase II, residual activity on Leu-pNA
Protocol: The temperature stability of the aminopeptidase II was determined using the following protocol: 480 μl of 50 mM sodium phosphate buffer pH 7.5 was preincubated at 37°, 45°, 55°, 60°, 65°, 70°, and 75° C. for 30 minutes in a 1.7 ml Eppendorf tube. Then 20 μl of purified aminopeptidase II was added and the sample was then incubated for an additional 20 minutes. The samples were then placed on ice. Once the incubations were completed for all the temperatures, the samples were then assayed for activity using Leu-pNA as substrate.
The assay was performed by mixing 100 μl of the incubation mixtures for the various temperatures with 100 μl of 2 mg/ml Leu-pNA in 50 mM sodium phosphate pH 7.5 buffer at ambient temperature. The absorbance at 405 nm was monitored for 5 minutes.

[3] = pH optimum using Ala-pNA as substrate in universal buffer
Protocol: The purified aninopeptidase II described in Example 15 was used in the following characterizations.
The Ala-pNA substrate was prepared by dissolving 100 mg of Ala-pNA in 1 ml of DMSO and adding 20 μl of the Ala-pNA/DMSO solution to 980 μl of the universal buffer at the various pH values. The assay was initiated by adding a 15 μl aliquot of the aminopeptidase II in 50 mM sodium phosphate pH 7.5 buffer to 200 μl of 2 mg/ml Ala-pNA at the various pH values at ambient temperature. The change in absorbance at 405 nm was monitored for 5 minutes. Autohydrolysis of the substrate as a control was determined by adding 15 μl of 50 mM sodium phosphate pH 7.5 buffer to 200 μl of 2 mg/ml Ala-pNA at the various pH values.

[4] = 2 LAPUs aminopeptidase II added to 3 LAPUs FLAVOURZYME
[5] = 5 LAPUs aminopeptidase II added to 3 LAPUs FLAVOURZYME

B1: aminopeptidase II: Recombinant Aspergillus oryzae 1568 (ATCC 20386) aminopeptidase II, 496 amino acids (SEQ ID NO:2), produced in Aspergillus oryzae or Fusarium (protein)
chain: MRSLLWASLLSGVLAGRALVSPDEFPEDIQLEDLLEGSQQLEDFAYAYPERNRVFGGKAHDDTVNYLYEELKKTGYYDVYKQPQVHLWSNADQTLKVGDEEIEAKTMTYSPSVEVTADVAVVKNLGCSEADYPSDVEGKVALIKRGECPFGDKSVLAAKAKAAASIVYNNVAGSMAGTLGAAQSDKGPYSAIVGISLEDGQKLIKLAEAGSVSVDLWVDSKQENRTTYNVVAQTKGGDPNNVVALGGHTDSVEAGPGINDDGSGIISNLVIAKALTQYSVKNAVRFLFWTAEEFGLLGSNYYVSHLNATELNKIRLYLNFDMIASPNYALMIYDGDGSAFNQSGPAGSAQIEKLFEDYYDSIDLPHIPTQFDGRSDYEAFILNGIPSGGLFTGAEGIMSEENASRWGGQAGVAYDANYHAAGDNMTNLNHEAFLINSKATAFAVATYANDLSSIPKRNTTSSLHRRARTMRPFGKRAPKTHAHVSGSGCWHSQVEA
Q: With B1 as the molecule, how does the “increase of absolute DH” value [1, 4] read?
A: The value was 6%.

Q: And the “increase of absolute DH” value [1, 5]?
A: The value was 9%.

Q: What about the “increase of absolute DH” value (sodium-caseinate; 1 LAPU aminopeptidase II added to 3 LAPUs FLAVOURZYME) of the same molecule?
A: The value was 7%.

Q: What about the “increase of absolute DH” value (sodium-caseinate; [4]) of the same molecule?
A: The value was 9%.

Q: And the “increase of absolute DH” value (soy bean meal tablets; [4])?
A: The value was “at least 8%”.

Q: What about the “increase of absolute DH” value (soy bean meal tablets; [5]) of the same molecule?
A: The value was ≥ 10%.

Q: And the “increase of absolute DH” value (gelatin; 2 LAPUs added to 3 LAPUs FLAVOURZYME)?
A: The value was 4.9%.

Q: What about the “increase of absolute DH” value (gelatin; 5 LAPUs added to 3 LAPUs FLAVOURZYME) of the same molecule?
A: The value was 5.3%.

Q: What about the “Percent activity relative to 37° C.” value ([2]; 20 minutes at 37° C., pH 7.5, no substrate (reference)) of the same molecule?
A: The value was 100.

Q: What about the “Percent activity relative to 37° C.” value ([2]; 20 minutes at 45° C., pH 7.5, no substrate) of the same molecule?
A: Its value is 101.

Q: What about the “Percent activity relative to 37° C.” value ([2]; 20 minutes at 55° C., pH 7.5, no substrate) of the same molecule?
A: The value was 99.

Q: And the “Percent activity relative to 37° C.” value ([2]; 20 minutes at 60° C., pH 7.5, no substrate)?
A: The value was 90.

Q: And the “Percent activity relative to 37° C.” value ([2]; 20 minutes at 65° C., pH 7.5, no substrate)?
A: The value was 73.7.

Q: What about the “Percent activity relative to 37° C.” value ([2]; 20 minutes at 70° C., pH 7.5, no substrate) of the same molecule?
A: Its value is 64.6.

Q: What about the “Percent activity relative to 37° C.” value ([2]; 20 minutes at 75° C., pH 7.5, no substrate) of the same molecule?
A: Its value is 46.

Q: What about the “pH of optimal activity” value ([3]; Ala-pNA as substrate, ambient temperature, enzyme of Example 15 (produced by Fusarium)) of the same molecule?
A: Its value is 9.5-10.

Q: And the “Avg. Activity” value ([3]; pH 4.42, Ala-pNA, ambient temperature)?
A: The value was 0 mOD/min.

Q: What about the “Relative Activity” value ([3]; pH 4.42, Ala-pNA, relative to pH 9.68) of the same molecule?
A: Its value is 0.

Q: What about the “Avg. Activity” value ([3]; pH 4.91, Ala-pNA, ambient temperature) of the same molecule?
A: The value was 2 mOD/min.

Q: What about the “Relative Activity” value ([3]; pH 4.91, Ala-pNA, relative to pH 9.68) of the same molecule?
A: Its value is 0.006.

Q: What about the “Avg. Activity” value ([3]; pH 5.41, Ala-pNA, ambient temperature) of the same molecule?
A: Its value is 7.8 mOD/min.

Q: What about the “Relative Activity” value ([3]; pH 5.41, Ala-pNA, relative to pH 9.68) of the same molecule?
A: The value was 0.024.

Q: And the “Avg. Activity” value ([3]; pH 5.89, Ala-pNA, ambient temperature)?
A: Its value is 13.9 mOD/min.

Q: What about the “Relative Activity” value ([3]; pH 5.89, Ala-pNA, relative to pH 9.68) of the same molecule?
A: The value was 0.043.

Q: What about the “Avg. Activity” value ([3]; pH 6.40, Ala-pNA, ambient temperature) of the same molecule?
A: Its value is 16.37 mOD/min.

Q: What about the “Relative Activity” value ([3]; pH 6.40, Ala-pNA, relative to pH 9.68) of the same molecule?
A: The value was 0.051.

Q: What about the “Avg. Activity” value ([3]; pH 6.90, Ala-pNA, ambient temperature) of the same molecule?
A: Its value is 23.48 mOD/min.

Q: What about the “Relative Activity” value ([3]; pH 6.90, Ala-pNA, relative to pH 9.68) of the same molecule?
A: Its value is 0.0727.

Q: And the “Avg. Activity” value ([3]; pH 7.27, Ala-pNA, ambient temperature)?
A: Its value is 41.24 mOD/min.

Q: And the “Relative Activity” value ([3]; pH 7.27, Ala-pNA, relative to pH 9.68)?
A: Its value is 0.128.

Q: What about the “Avg. Activity” value ([3]; pH 7.59, Ala-pNA, ambient temperature) of the same molecule?
A: The value was 69.15 mOD/min.

Q: And the “Relative Activity” value ([3]; pH 7.59, Ala-pNA, relative to pH 9.68)?
A: The value was 0.214.

Q: And the “Avg. Activity” value ([3]; pH 8.03, Ala-pNA, ambient temperature)?
A: The value was 145.6 mOD/min.

Q: And the “Relative Activity” value ([3]; pH 8.03, Ala-pNA, relative to pH 9.68)?
A: Its value is 0.45.

Q: What about the “Avg. Activity” value ([3]; pH 8.62, Ala-pNA, ambient temperature) of the same molecule?
A: The value was 245.99 mOD/min.

Q: What about the “Relative Activity” value ([3]; pH 8.62, Ala-pNA, relative to pH 9.68) of the same molecule?
A: The value was 0.761.

Q: And the “Avg. Activity” value ([3]; pH 9.25, Ala-pNA, ambient temperature)?
A: The value was 306.97 mOD/min.

Q: And the “Relative Activity” value ([3]; pH 9.25, Ala-pNA, relative to pH 9.68)?
A: Its value is 0.95.

Q: What about the “Relative Activity” value ([3]; pH 9.68, Ala-pNA (reference)) of the same molecule?
A: The value was 1.0.

Q: And the “Avg. Activity” value ([3]; pH 9.68, Ala-pNA, ambient temperature)?
A: Its value is 323.15 mOD/min.

Q: And the “Avg. Activity” value ([3]; pH 10.51, Ala-pNA, ambient temperature)?
A: The value was 270.8 mOD/min.

Q: And the “Relative Activity” value ([3]; pH 10.51, Ala-pNA, relative to pH 9.68)?
A: The value was 0.838.

Q: And the “Avg. Activity” value ([3]; pH 10.95, Ala-pNA, ambient temperature)?
A: Its value is 197.86 mOD/min.

Q: And the “Relative Activity” value ([3]; pH 10.95, Ala-pNA, relative to pH 9.68)?
A: The value was 0.612.
